Data on 7 molecules can be found in PMC12357092, “Two stages of substrate discrimination dictate selectivity in the Escherichia coli MetNI-Q ABC transporter system” (The Journal of Biological Chemistry, 2025).

Where a chain is given by its changes, count along the chain named. Numbers in names are those of the source. Like-named read-outs stand apart in the source and are kept apart here.

The target of series [1] is MetQ (Escherichia coli) (UniProt P28635). The conditions noted are these: cited from earlier work.
For series [2] the target is unchanged. Conditions: cited from earlier work. This is another data set of the same source.
For series [3], the target named is T1, MetNI (Escherichia coli, UniProt P30750, N295A).
T1 construct: gene metN; DDM-solubilized full MetNI transporter (MetN2MetI2), His-tag purified, prepared as previously described; with D-methionine transport system permease protein MetI
The series can be described thus: ATPase inhibition, EnzChek phosphate assay. The series is classed as biochemical.

The target of series [4] is T2, MetNI (Escherichia coli, UniProt P30750).
T2 construct: gene metN; DDM-solubilized full MetNI transporter (MetN2MetI2), His-tag purified, prepared as previously described; with D-methionine transport system permease protein MetI
Nature of the series: ATPase inhibition, EnzChek phosphate assay. The series is classed as biochemical. From the text:
ATPase inhibition, EnzChek phosphate assay on MetNI | we measured the inhibitory constants (Ki) for both L- and D-Met

In series [5] the target is T3, MetQ (Escherichia coli, UniProt P28635, N229A).
T3 construct: secreted, non-lipidated periplasmic MetQ, C-terminal 6xHis, from E. coli BL21(DE3) Gold
T3 sequence (P28635 23-271 N229A): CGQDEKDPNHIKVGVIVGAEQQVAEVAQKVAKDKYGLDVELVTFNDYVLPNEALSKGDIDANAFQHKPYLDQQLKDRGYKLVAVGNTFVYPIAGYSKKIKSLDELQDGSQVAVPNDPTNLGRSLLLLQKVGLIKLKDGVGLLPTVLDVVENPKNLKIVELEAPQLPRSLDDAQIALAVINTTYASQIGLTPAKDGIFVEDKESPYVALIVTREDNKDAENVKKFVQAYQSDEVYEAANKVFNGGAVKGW
The series can be described thus: isothermal titration calorimetry. The series is classed as binding.

Series [6] has as its target T4, MetQ (Escherichia coli, UniProt P28635).
T4 construct: secreted, non-lipidated periplasmic MetQ, C-terminal 6xHis, from E. coli BL21(DE3) Gold
T4 sequence (P28635 23-271): T3 sequence (P28635 23-271 N229A) with A207N
The series can be described thus: isothermal titration calorimetry. The class given is binding.

For another series, the target named is T5, MetNI-Q (Escherichia coli, UniProt P28635+P31547).
T5 construct: gene metQ
T5 sequence (P28635 23-271): T3 sequence (P28635 23-271 N229A) with A207N
T5 sequence (P31547 1-217): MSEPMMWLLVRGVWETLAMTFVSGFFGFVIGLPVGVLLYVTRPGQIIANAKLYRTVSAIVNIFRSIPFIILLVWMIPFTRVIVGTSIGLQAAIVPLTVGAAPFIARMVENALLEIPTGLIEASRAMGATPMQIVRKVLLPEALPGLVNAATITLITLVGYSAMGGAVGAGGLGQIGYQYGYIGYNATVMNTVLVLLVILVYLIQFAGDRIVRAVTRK
T5 sequence (P30750 1-343 partner): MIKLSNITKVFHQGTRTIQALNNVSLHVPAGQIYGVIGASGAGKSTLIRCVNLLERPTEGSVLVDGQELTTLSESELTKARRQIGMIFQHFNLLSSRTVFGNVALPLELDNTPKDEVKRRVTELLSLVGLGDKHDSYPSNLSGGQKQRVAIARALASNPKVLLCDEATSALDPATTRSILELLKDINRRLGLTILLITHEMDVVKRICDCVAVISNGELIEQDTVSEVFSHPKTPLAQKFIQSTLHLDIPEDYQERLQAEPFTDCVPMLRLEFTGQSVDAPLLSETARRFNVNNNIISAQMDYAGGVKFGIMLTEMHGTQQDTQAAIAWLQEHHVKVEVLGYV
Nature of the series: proteoliposome uptake of 3H-methionine. The series is classed as biochemical. The conditions noted are these: 50 μM L-Met, 50 μM WT MetQ, ATP-regenerating system in lumen, 5 mM MgCl2, pH 7.5, 37 °C; labelled compound.

Substrate in the series “purified protein”: Nc1ncnc2c1ncn2[C@@H]1O[C@H](COP(=O)(O)OP(=O)(O)OP(=O)(O)O)[C@@H](O)[C@H]1O
The series can be described thus: purified protein. The conditions noted are these: 500 nM MetNI in DDM, equimolar MgCl2 and ATP, 37 °C, no MetQ, no Met.

The target in series [7] is T6, E. coli MetNI transporter, E166Q/N295A double mutant, detergent-solubilized (E. coli, UniProt P30750 1-343; P31547 1-217, E166Q | N295A).
T6 construct: MetI, the transmembrane (permease) subunit of the E. coli methionine ABC importer MetNI; also called E166Q/N295A MetNI; source: purified, detergent-solubilized (DDM); copies: 2 + 2
T6 sequence (looked up) 1: T5 sequence (P30750 1-343 partner) with E166Q, N295A
T6 sequence (looked up) 2: T5 sequence (P31547 1-217)
Nature of the series: fluorescence polarisation; 20 nM fluorescein-labelled MetQ held constant, detergent-solubilized E166Q/N295A MetNI 0-10 uM; ATP-bound state mimicked with 5 mM ATP and 10 mM EDTA; no methionine added (unfolded-refolded WT MetQ or native N229A); 57.5 mM Tris pH 7.5, 10 mM TAPS pH 8.5, 150 mM NaCl, 1.5 mM bME, 0.05% DDM; single-site binding model. The conditions noted are these: both partners purified.

In series [8] the target is T7, E. coli MetNI transporter, N295A mutant (E. coli, UniProt P30750 1-343; P31547 1-217, N295A).
T7 sequence (looked up) 1: T5 sequence (P30750 1-343 partner) with N295A
T7 sequence (looked up) 2: T5 sequence (P31547 1-217)
The series can be described thus: cell-based or functional assay.

The target in series [9] is T8, E. coli MetNI transporter, E166Q/N295A double mutant, detergent-solubilized (E. coli, UniProt P30750 1-343; P31547 1-217, E166Q | N295A).
T8 sequence 1: T5 sequence (P30750 1-343 partner) with E166Q, N295A
T8 sequence 2: T5 sequence (P31547 1-217)
The series can be described thus: FP; unfolded-refolded N229A MetQ, ATP/EDTA.

The target of series [10] is T6, E. coli MetNI transporter, E166Q/N295A …. The series can be described thus: fluorescence polarisation; control: native WT MetQ (co-purifies with L-Met, not unfolded-refolded) with detergent-solubilized E166Q/N295A MetNI. The conditions noted are these: both partners purified.
For series [11] the target is unchanged. The series can be described thus: fluorescence polarisation; as a1 (5 mM ATP and 10 mM EDTA), unfolded-refolded WT MetQ with exogenous 100 uM D-Met. Conditions: both partners purified.
Series [12] shares this target. Nature of the series: fluorescence polarisation; as a1 (5 mM ATP and 10 mM EDTA), unfolded-refolded WT MetQ with exogenous 100 uM L-Met. The conditions noted are these: both partners purified.

T1 sequence (P30750 whole entry N295A, one chain of several): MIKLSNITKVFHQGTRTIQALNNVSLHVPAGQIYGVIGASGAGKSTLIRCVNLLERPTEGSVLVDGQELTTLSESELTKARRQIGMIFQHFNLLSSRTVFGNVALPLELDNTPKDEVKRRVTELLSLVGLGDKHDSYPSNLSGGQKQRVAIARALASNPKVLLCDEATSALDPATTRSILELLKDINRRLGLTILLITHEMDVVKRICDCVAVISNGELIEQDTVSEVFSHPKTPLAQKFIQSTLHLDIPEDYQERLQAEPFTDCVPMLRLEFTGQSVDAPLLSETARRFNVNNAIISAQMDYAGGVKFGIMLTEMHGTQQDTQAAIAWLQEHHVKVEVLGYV

As for MetNI (from UniProt P30750), the Kd in the series with MetQ (Escherichia coli) [1] was 0.027 µM; with MetQ (Escherichia coli) [2], 1.1 µM.
As for `CSCC[C@H](N)C(=O)O` [L-Met], the figures for the Ki on MetNI [3] and on MetNI [4] were 3300 ± 300 µM and 120 ± 20 µM, respectively. The Kd worked out at 300 ± 70 µM at MetQ [5] and 0.0066 ± 0.0006 µM at MetQ [6]. For the same molecule, the uptake rate entry on MetNI-Q is recorded as “L-Met was imported into proteoliposomes”.
With `CSCC[C@@H](N)C(=O)O` [D-Met], the Ki at MetNI [3] is 2400 ± 400 µM; on MetNI [4], 5400 ± 100 µM. Besides, the figures for the Kd at MetQ [5] and on MetQ [6] were 110 ± 30 µM and 6.6 ± 0.6 µM, respectively.

B1: MetNI (Escherichia coli K-12) (protein)
chain: T5 sequence (P30750 1-343 partner)
Consider B1, for which, in the series “purified protein”, the Km amounted to 800 ± 100 µM and the kcat came out at 0.4 ± 0.067 s⁻¹.

B2: MetNI (Escherichia coli K-12; N295A) (protein)
chain: T5 sequence (P30750 1-343 partner) with N295A
As to B2, in the series “purified protein”, the Km stood at 812 ± 4 µM and the kcat came to 0.4 ± 0.067 s⁻¹.

B3: E. coli MetQ N229A, secreted (non-lipidated), C-terminal 6x-histidine tag (natural protein, UniProt P28635 23-271, looked up)
chain: T3 sequence (P28635 23-271 N229A)
modifications: fluorescein 5-maleimide on the single native cysteine at position 23 (anisotropy experiments)
notes: secreted non-lipidated form isolated from the periplasmic extract; The protein is unlabelled in the ATPase assays; also called N229A MetQ; native N229A; source: E. coli BL21 (DE3) Gold, periplasmic extract, purified (HisTrap, Superdex 200); not shown: His6, C-terminal, kept
Turning to B3, the Kd in series [7] turned out to be 0.3 µM; in [9] it was 0.113 µM. The “kcat of MetQ-stimulated ATPase activity of detergent-solubilized N295A MetNI, 5 mM MgATP, native N229A MetQ 0-50 μM” value in series [8] worked out at 4.45 s⁻¹.

B4: E. coli MetQ substrate-binding protein, wild type, secreted (non-lipidated), C-terminal 6x-histidine tag (natural protein, UniProt P28635 23-271, looked up)
chain: T3 sequence (P28635 23-271 N229A) with A207N
modifications: fluorescein 5-maleimide on the single native cysteine at position 23 (anisotropy experiments)
notes: secreted non-lipidated form isolated from the periplasmic extract; Cys23 is present; WT(apo), WT(LM) and WT(DM) are the same protein without methionine, with 100 uM L-Met or with 100 uM D-Met; native WT co-purifies with L-Met; The protein is unlabelled in the ATPase assays; also called WT MetQ; WT(apo); source: E. coli BL21 (DE3) Gold, periplasmic extract, purified (HisTrap, Superdex 200); not …
For the molecule B4, the Kd amounted to 8 ± 2 µM in [10], 0.4 µM in series [7], 0.8 µM in series [11] and 5 µM in series [12]. Also, the “kcat of MetQ-stimulated ATPase activity of detergent-solubilized N295A MetNI, 5 mM MgATP, WT(DM) MetQ 0-50 μM with 100 μM D-Met” value in [8] came out at 1.83 s⁻¹. In addition, in series [8], the “kcat of MetQ-stimulated ATPase activity of detergent-solubilized N295A MetNI, 5 mM MgATP, WT(LM) MetQ 0-50 μM with 100 μM L-Met” value came to 1 s⁻¹. Further, in [8], the “kcat of MetQ-stimulated ATPase activity of detergent-solubilized N295A MetNI, 5 mM MgATP, WT(apo) MetQ 0-50 μM” value was found to be 4 s⁻¹.
